Results as given in patent US20230052256A1.

Assays:
[1] = target: human FGFR2b (beta)-Fc, human Fc fusion (human); test: SPR (Biacore T200), hFGFR2b-Fc amine-coupled to a CM5 chip, antibody injected at 0-200 nM
[2] = target: recombinant human FGFR1b-Fc (R&D Systems) (human) (UniProt P11362); test: SPR (Biacore T200), hFGFR1b-Fc amine-coupled to CM5 chip, antibody injected
[3] = target: recombinant human FGFR1b-Fc (R&D Systems) (human) (UniProt P11362); test: SPR (Biacore T200), hFGFR1b-Fc amine-coupled to a CM5 chip, antibody injected at 0-200 nM

Chain of recombinant human FGFR1b-Fc (R&D Systems) (human) (P11362 other isoform, or with tags, fused parts or gaps limits assumed): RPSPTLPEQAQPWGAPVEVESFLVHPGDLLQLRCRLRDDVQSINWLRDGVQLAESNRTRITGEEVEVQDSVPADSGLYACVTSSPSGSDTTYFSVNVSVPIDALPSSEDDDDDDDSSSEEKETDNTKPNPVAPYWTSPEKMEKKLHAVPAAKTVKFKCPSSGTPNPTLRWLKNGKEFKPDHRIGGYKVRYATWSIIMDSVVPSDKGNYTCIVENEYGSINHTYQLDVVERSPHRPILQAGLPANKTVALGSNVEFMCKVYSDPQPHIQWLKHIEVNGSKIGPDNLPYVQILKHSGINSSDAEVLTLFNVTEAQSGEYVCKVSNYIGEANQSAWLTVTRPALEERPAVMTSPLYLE

Kd [1]: 0.00075 µM
koff [1]: 7.77e-05 s⁻¹
kon [1]: 104000 M⁻¹ s⁻¹
Kd [2]: 0.225 µM
koff [3]: 0.00746 s⁻¹
kon [3]: 33200 M⁻¹ s⁻¹
B1: FPA144 (clinical stage anti-human FGFR2b specific antibody) (antibody, INN chains, looked up, V domains shown)
VH: QVQLVQSGAEVKKPGSSVKVSCKASGYIFTTYNVHWVRQAPGQGLEWIGSIYPDNGDTSYNQNFKGRATITADKSTSTAYMELSSLRSEDTAVYYCARGDFAYWGQGTLVTVSS
VL: DIQMTQSPSSLSASVGDRVTITCKASQGVSNDVAWYQQKPGKAPKLLIYSASYRYTGVPSRFSGSGSGTDFTFTISSLQPEDIATYYCQQHSTTPYTFGQGTKLEIK
